Measured values reported in patent publication US9809653B2, “Anti-LAMP1 antibodies and antibody drug conjugates, and uses thereof” (SANOFI, priority 2012, dated 2017).
Changes are numbered by the printed parent chain.

Columns and labels:
Type in all cases: binding
[1] = biological target: T1, human LAMP1 expressed transiently at the cell surface of HEK293 (Homo sapiens, UniProt P11279); test: FACS on HEK293 cells transiently transfected with human LAMP1; conditions: transient HEK293
T1 construct: expressed in transfected cells; host or cells: HEK293 (Invitrogen K9000-10), transient transfection
T1 sequence (P11279 29-417): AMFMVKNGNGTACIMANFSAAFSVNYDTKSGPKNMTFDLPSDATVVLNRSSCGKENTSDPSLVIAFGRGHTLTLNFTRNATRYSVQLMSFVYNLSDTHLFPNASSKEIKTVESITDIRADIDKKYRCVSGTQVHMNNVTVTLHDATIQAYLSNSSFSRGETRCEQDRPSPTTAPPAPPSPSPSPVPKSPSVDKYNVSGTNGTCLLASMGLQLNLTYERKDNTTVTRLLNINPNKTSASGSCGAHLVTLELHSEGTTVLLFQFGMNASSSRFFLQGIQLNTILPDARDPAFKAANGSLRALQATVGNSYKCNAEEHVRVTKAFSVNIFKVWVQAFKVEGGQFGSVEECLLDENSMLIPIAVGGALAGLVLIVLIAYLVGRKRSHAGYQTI
Source text: (§1) LAMP1 Coding DNA Sequence, RefSeq NM_005561.3 (SEQ ID NO: 23) was cloned internally. The CDS of Macaca mulatta LAMP1, RefSeq XP_001087801 (SEQ ID NO: 27) was also cloned internally. The predicted sequences of mature LAMP1 from Macaca mulatta and Macaca fascicularis are identical to 99%, said sequence differing by one additional Leucin at position 11 of Macaca mulatta (SEQ ID NO: 27), i.e. in the signal peptide. The mature LAMP1 proteins of Macaca mulatta and Macaca fascicularis are identical. Therefore the secreted LAMP1 used in the following example is referred to cynomolgus monkey. Both CDS were cloned into mammalian expression plasmids under CMV enhancer/promoter and SV40 polyA signals. HEK293 cells (Invitrogen; #K9000-10.) were transiently transfected with human LAMP1 or cynomolgus LAMP1 plasmids using FreeStyle™ MAX 293 Expression System according to the manufacturer's instructions. […] 100 μL/well of goat anti-mouse IgG conjugated with Alexa647 (Invitrogen; #A2135) was added for 45 min at 4° C. and washed three times with PBS 1% BSA. The antibody binding was evaluated after centrifugation and resuspension of cells by adding 200 μl/well PBS 1% BSA and read using Guava® easyCyte™ 8HT Flow Cytometry System. EC50 values were estimated using BIOST@T-SPEED software.

[2] = system: cynomolgus monkey LAMP1 expressed transiently at the cell surface of HEK293; test: FACS on HEK293 cells transiently transfected with cynomolgus LAMP1; conditions: transient HEK293
Source text: as §1

[3] = biological target: T2, Alascan LAMP1 transmembrane proteins (hLAMP1_ΔGYQTI mutants) (Homo sapiens, UniProt P11279, I149A); test: Ala scan of LAMP1 transmembrane proteins, flow cytometry; conditions: pXL6070, I149A in hLAMP1_ΔGYQTI; loss = decrease of more than 50% of the mean fluorescence
T2 construct: expressed in transfected cells; host or cells: HEK293 (293-F), transient transfection
T2 sequence (P11279 with tags, fused parts or gaps I149A): T1 sequence (P11279 29-417) with I121A, G385A, Y386A, Q387A, T388A, I389A
Source text: (§2) Individual residues identified in example 6.5 and not involved in β-strand structure have been individually replaced by an alanine residue in the LAMP1 sequence derived from hLAMP1_ΔGYQTI and encoded in plasmid pXL5626 (example 6.4). A total of 21 plasmids were engineered from pXL5626 (see Table 19) and used to assay LAMP1 expression at the cell membrane of HEK293 cells after transient transfection. Two days post transfection cells were processed, analyzed by flow cytometry (Guava® easyCyte™ 8HT) as mentioned in example 4.7, and the mean fluorescence was recorded. This fluorescence represents a semi-quantitative assessment of binding. Loss of binding is reported on Table 19 when there is a decrease of more than 50% of the mean fluorescence compared to the control protein encoded from pXL5626.

[4] = biological target: T3, Alascan LAMP1 transmembrane proteins (hLAMP1_ΔGYQTI mutants) (Homo sapiens, UniProt P11279, R186A); test: as above; conditions: pXL6081, R186A in hLAMP1_ΔGYQTI; loss = decrease of more than 50% of the mean fluorescence
T3 construct: expressed in transfected cells; host or cells: HEK293 (293-F), transient transfection
T3 sequence (P11279 with tags, fused parts or gaps R186A): T1 sequence (P11279 29-417) with R158A, G385A, Y386A, Q387A, T388A, I389A
Source text: as §2

cynomolgus monkey LAMP1 expressed transiently at the cell surface of HEK293, sequence (as listed by the source): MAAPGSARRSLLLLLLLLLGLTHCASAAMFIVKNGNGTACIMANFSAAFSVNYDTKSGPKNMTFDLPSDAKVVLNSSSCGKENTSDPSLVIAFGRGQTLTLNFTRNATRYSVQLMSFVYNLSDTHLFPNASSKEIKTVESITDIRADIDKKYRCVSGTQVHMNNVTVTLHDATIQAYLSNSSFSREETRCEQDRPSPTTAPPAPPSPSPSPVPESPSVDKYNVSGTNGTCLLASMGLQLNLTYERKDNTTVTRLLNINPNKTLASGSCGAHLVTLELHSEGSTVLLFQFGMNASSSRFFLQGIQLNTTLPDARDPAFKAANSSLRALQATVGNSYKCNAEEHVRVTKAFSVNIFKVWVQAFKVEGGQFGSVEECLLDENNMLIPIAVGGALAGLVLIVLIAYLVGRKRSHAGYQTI

B1: MAb1: murine monoclonal anti-LAMP1 antibody, VH SEQ ID NO: 1, VL SEQ ID NO: 5 (antibody, V domains shown)
VH: QVQLQQSGAELVKPGASVKMSCKASGYIFTNYNIHWVKKSPGQGLEWIGAIYPGNGDAPYSQKFKDKATLTADKSSSTTYMQLSRLTSEDSAVYYCVRANWDVAFAYWGQGTLVSVSA
VL: DIQMTQSPPSLSASLGGKVTITCKASQDIDRYMAWYQDKPGKGPRLLIHDTSTLQPGIPSRFSGSGSGRDYSFSISNLEPEDIATYYCLQYDNLWTFGGGTKLEIK
modifications: Antibody Fragment; antibody fragment
In the case of B1, the EC50 [1] is reported as 14 nM, the EC50 [2] is reported as 44 nM and the “Binding to mAb, Alascan” value [3] is reported as “Binding loss”. For the same molecule, the “Binding to mAb, Alascan” value [4] was “Binding loss”.
